The source of these data is article PMC6625847 (Molecular cell, 2019).

Residue numbers refer to the chain shown, from its start. Names may count otherwise. “And” between values parts separate entries of the source, which are not always exact repeats. Equal entries are not always repeated. Where two headings read alike, the source gives them in different places.

One series has as its target Arc (Arg3.1) (UniProt Q63053). The series can be described thus: dynamic light scattering of oligomer size. Conditions: reference: wild type; sites T278.
The target of series [1] is full-length ArcG277D (rat) (UniProt Q63053). The series can be described thus: dynamic light scattering.
Series [2] has as its target full-length ArcK257A (rat) (UniProt Q63053). The series can be described thus: dynamic light scattering.
Series [3] addresses full-length ArcQ241A (rat) (UniProt Q63053). In words: dynamic light scattering.
Series [4] deals with full-length ArcS260D (rat) (UniProt Q63053). The series can be described thus: dynamic light scattering.
The target in series [5] is full-length ArcS260D,T278A (rat) (UniProt Q63053). In words: dynamic light scattering.
Series [6] has as its target full-length ArcS260D,T278D (rat) (UniProt Q63053). The series can be described thus: dynamic light scattering.
Series [7] deals with the molecule itself. The series can be described thus: dynamic light scattering.
Series [8] concerns the molecule itself. In words: dynamic light scattering. The source holds these as a separate data set.

For the molecule “Arc (Arg3.1) (from UniProt Q63053) T278D”, the “other: oligomer mass from DLS after 6 min at 30°C” value in the series with Arc (Arg3.1) is reported as “weaker; reference ~2458”.

As usually defined, the stoichiometry N is a count of units in the complex or per binding partner. As to “full-length ArcG277D (from UniProt Q63053 1-396) (natural protein)”, the stoichiometry N in series [1] was determined as 4.

In the case of “full-length ArcK257A (from UniProt Q63053 1-396) (natural protein)”, the stoichiometry N in [2] stood at 4.

Take “full-length ArcQ241A (from UniProt Q63053 1-396) (natural protein)”: the stoichiometry N in [3] stood at 4.

In series [4], “full-length ArcS260D (from UniProt Q63053 1-396) (natural protein)” returned a stoichiometry N of 4.

Consider “full-length ArcS260D,T278A (from UniProt Q63053 1-396) (natural protein)”, for which, in series [5], the stoichiometry N amounted to 4.

“full-length ArcS260D,T278D (from UniProt Q63053 1-396) (natural protein)” had a stoichiometry N in [6] of 4.

B1: full-length Rn Arc (wild type) (natural protein, rat, UniProt Q63053 1-396, looked up)
chain: MELDHMTTGGLHAYPAPRGGPAAKPNVILQIGKCRAEMLEHVRRTHRHLLTEVSKQVERELKGLHRSVGKLENNLDGYVPTGDSQRWKKSIKACLCRCQETIANLERWVKREMHVWREVFYRLERWADRLESMGGKYPVGSEPARHTVSVGVGGPEPYCQEADGYDYTVSPYAITPPPAAGELPEQESVGAQQYQSWVPGEDGQPSPGVDTQIFEDPREFLSHLEEYLRQVGGSEEYWLSQIQNHMNGPAKKWWEFKQGSVKNWVEFKKEFLQYSEGTLSREAIQRELDLPQKQGEPLDQFLWRKRDLYQTLYVDAEEEEIIQYVVGTLQPKFKRFLRHPLPKTLEQLIQRGMEVQDGLEQAAEPSVTPLPTEDETEALTPALTSESVASDRTQPE
With B1, the “stoichiometry N” value in the series “dynamic light scattering [7]” is ~32 and ~48; in the series “dynamic light scattering [8]” it was 4.

B2: full-length ArcS260A (natural protein, rat, UniProt Q63053 1-396, looked up)
chain: B1 chain with S260A
On to B2, for which, in “dynamic light scattering [7]”, the binding result was “binds”.

B3: full-length ArcT278D (natural protein, rat, UniProt Q63053 1-396, looked up)
chain: B1 chain with T278D
Consider B3, for which the “stoichiometry N” value in “dynamic light scattering [7]” is approximately 24; in the series “dynamic light scattering [8]”, 4.

B4: full-length ArcS260A,T278A (natural protein, rat, UniProt Q63053 1-396, looked up)
chain: B1 chain with S260A, T278A
As to B4, the binding result in “dynamic light scattering [7]” is reported as “binds”.
